# Assay results published in PMC11021482.
# T1: CXCR2 of mouse DRG neurons (mouse (endogenous in DRG)) (UniProt P35343)
# T1 sequence: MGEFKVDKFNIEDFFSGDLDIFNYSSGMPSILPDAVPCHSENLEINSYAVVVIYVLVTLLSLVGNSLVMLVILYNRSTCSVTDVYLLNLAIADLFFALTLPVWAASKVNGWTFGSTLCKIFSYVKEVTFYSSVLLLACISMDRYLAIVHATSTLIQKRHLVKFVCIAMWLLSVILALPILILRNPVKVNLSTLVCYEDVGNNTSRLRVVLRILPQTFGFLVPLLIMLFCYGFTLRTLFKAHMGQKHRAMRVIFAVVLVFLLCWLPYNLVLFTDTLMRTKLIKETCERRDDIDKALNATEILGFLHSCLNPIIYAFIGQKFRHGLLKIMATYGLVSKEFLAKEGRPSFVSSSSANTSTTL
# Target: T1, CXCR2 of mouse DRG neurons (mouse (endogenous in DRG))
binder,measurement,value
recombinant mouse CXCL5 (ligand) APSSVIAATELRCVCLTVTPKINPKLIANLEVIPAGPQCPTVEVIAKLKNQKEVCLDPEAPVIKKIIQKILGSDKKKAKRNALAVERTASVQ,"EC50 of the Ca^2+ response of cultured mouse DRG neurons to CXCL5 (Fura-2 imaging, dose-response)",24.8 nM
